For this data set, the target named is NS3 helicase (NS3h) (Hepatitis C virus genotype 1b (Con1), UniProt Q9WMX2 1193-1660). As to the kind of experiment: fluorescence polarization; 5 nM DNA, 15 nM NS3h, 1.25 mM MgCl2; FP: 25 mM MOPS pH 7.5, 1.25 mM MgCl2, 0.0025 mg/mL BSA, 0.005% Tween 20, 0.025 mM DTT, 1% DMSO, temperature not stated; EMSA: 50 mM Tris-Cl pH 7.4, 10% glycerol, 0 C, 20 min. The note with it: protein: recombinant; tags: His tag (pET21b(+), HisTrap purified); single strand.
Chain of NS3 helicase (NS3h) (Q9WMX2 1193-1660): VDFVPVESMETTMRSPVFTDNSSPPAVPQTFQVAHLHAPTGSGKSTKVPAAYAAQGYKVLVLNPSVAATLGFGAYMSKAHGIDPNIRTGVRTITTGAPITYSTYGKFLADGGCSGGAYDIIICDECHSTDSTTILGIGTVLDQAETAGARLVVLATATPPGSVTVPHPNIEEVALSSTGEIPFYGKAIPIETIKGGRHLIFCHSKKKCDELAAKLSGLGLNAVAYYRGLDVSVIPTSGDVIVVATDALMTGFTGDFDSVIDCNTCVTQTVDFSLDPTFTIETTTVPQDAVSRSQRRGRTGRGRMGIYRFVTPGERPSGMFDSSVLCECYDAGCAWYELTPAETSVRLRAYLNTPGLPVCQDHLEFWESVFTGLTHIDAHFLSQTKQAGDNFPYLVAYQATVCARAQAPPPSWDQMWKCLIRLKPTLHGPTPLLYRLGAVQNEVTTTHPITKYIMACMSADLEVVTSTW

B1: Cy5-dT15 (ssDNA)
DNA: TTTTTTTTTTTTTTT
In the case of B1, the binding result is “binds”.

The values above are taken from paper PMC5701637, “Identification and Analysis of Novel Inhibitors against NS3 Helicase and NS5B RNA-Dependent RNA Polymerase from Hepatitis C Virus 1b (Con1)”.
